Experimental data: PMC9898208
pKd: −log10 of the molar value.

Tests used:
Assay in all cases: single-channel current recording
[1] = target: OmpG^L3-FLAG/L6-SA1.1 (E. coli) (UniProt P76045)
[2] = target: OmpG^L3/L6-SA1.1 (E. coli) (UniProt P76045)
OmpG^L6-SA1.1 (E. coli) = OmpG^L6-SA1.1 (E. coli) (UniProt P76045)
Chain of OmpG^L6-SA1.1 (E. coli) (P76045 22-301): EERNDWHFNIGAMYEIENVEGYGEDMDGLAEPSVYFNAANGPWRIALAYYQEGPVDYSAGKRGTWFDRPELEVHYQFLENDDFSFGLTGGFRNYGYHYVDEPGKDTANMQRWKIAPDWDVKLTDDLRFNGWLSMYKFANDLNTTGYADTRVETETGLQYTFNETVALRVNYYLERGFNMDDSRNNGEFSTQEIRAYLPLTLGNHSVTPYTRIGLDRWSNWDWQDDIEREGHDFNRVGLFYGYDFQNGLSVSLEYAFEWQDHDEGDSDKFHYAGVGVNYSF

Chain of OmpG^L3-FLAG/L6-SA1.1 (E. coli) (P76045 22-301): as above
Chain of OmpG^L3/L6-SA1.1 (E. coli) (P76045 22-301): as above

pKd [1]: 5.12 | koff [1]: 0.55 s⁻¹ | kon [1]: 72200 M⁻¹ s⁻¹ | pKd [2]: 7.52 | k'Off of the sub-events within a discrete binding event [2]: 0.7 s⁻¹ | k'On 1 of the sub-events (rebinding) [2]: 3.9e+10 M⁻¹ s⁻¹ | k'On 2 of the sub-events (rebinding) [2]: 4.4e+09 M⁻¹ s⁻¹ | koff [2]: 0.01 s⁻¹ | kon [2]: 326000 M⁻¹ s⁻¹ | tau'On 1 of the sub-events (rebinding) [2]: 2.56 ms | tau'On 2 of the sub-events (rebinding) [2]: 22.9 ms | pKd (OmpG^L6-SA1.1 (E. coli)): 5.00 | koff (OmpG^L6-SA1.1 (E. coli)): 0.78 s⁻¹ | kon (OmpG^L6-SA1.1 (E. coli)): 77600 M⁻¹ s⁻¹
Substance: streptavidin (from UniProt P22629 25-183) (natural protein)
